T1: HD-5 (Homo sapiens, UniProt Q01523)
T1 sequence (Q01523 63-94 limits assumed): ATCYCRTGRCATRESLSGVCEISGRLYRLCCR


Legend:
[1] = biological target: T1, HD-5; conditions: in vitro, against Salmonella enterica serovar Typhimurium; cited from earlier work
[2] = tested on: human CEA antigen; experiment: Cytotoxicity (CTL) assays in HD-5 transgenic mice immunized orally with the Salmonella based CEA-DNA vaccine; format: in vivo; conditions: oral immunization, defensin inhibitor co-formulated or expressed by the strain
Text: HD-5 inhibitors enhance efficacy of whole organism vaccines such as Salmonella enterica serovar Typhimurium. Human defensin 5 (HD-5), is the major defensin in humans which is bactericidal for Salmonella typhimurium infection. HD-5 transgenic mice are dramatically more resistant to Salmonella typhimurium infection providing a model system to study effectiveness of Salmonella typhimurium as a platform vaccine carrier in the presence of inhibitors of HD-5. See Gosh D. et al., Nature Immunology, 3:583 (2002); Zasloff M, Nature Immunology, 3:508 (2002). HD-5 inhibitors increase efficacy of the Salmonella enterica based human CEA-DNA vaccine. Human CEA (carcinoembryonic antigen) is a tumor antigen for which protective immunity can be induced by vaccination with a live attenuated Salmonella enterica vaccine. See Xiang R. et al., Clinical Cancer Research, 7: 856s (2001). Efficacy of the vaccine is measured by conducting cytotoxicity (CTL) assays in HD-5 transgenic mice to measure immune response to the human CEA antigen. CTL assays are conducted in mice immunized orally with various doses of the vaccine (RemeStim-CEA), with or without addition of the HD-5 inhibitor. […]

[3] = tested on: trypsin; conditions: in vitro; cited from earlier work
[4] = tested on: Salmonella enterica serovar Typhimurium; conditions: cited from earlier work

Row | Molecule | inhibition of the bactericidal activity of the mature, active defensin [1] | further results
1 | Dermatan sulfate [reference compound] | inactivates alpha-defensin anti-bacterial activity | effectiveness of the Salmonella based CEA-DNA vaccine as measured by cytotoxicity assays [2]: enhances the effectiveness
2 | alpha 1-proteinase inhibitor: serpin, inhibitor of defensins | inhibit the bactericidal activity | –
3 | N=C(N)c1ccc(CS(=O)(=O)F)cc1 [APMSF, 4-amidinophelylmethane sulfonyl-fluoride] | – | inhibition of maturation of pro-HD-5 to mature HD-5 by trypsin [3]: inhibit maturation of pro-HD-5 to mature HD-5
4 | Pro-piece of HD-5: pro-domain of human HD-5 (amino acids 20-62), HD-5 peptide inhibitor (ESLQERADEATTQKQSGEDNQDLAISFAGNGLSALRTSGSQAR) | inhibit the bactericidal activity | –
5 | alpha 2-macroglobulin: protein inhibitor of defensins | inhibit the bactericidal activity | –
6 | HD-5: human defensin 5, anti-microbial peptide of the human intestine (protein, UniProt Q01523 20-94, looked up, Defensin-5, human defensin 5, anti-microbial peptide of the human intestine) Defensin alpha 5: ESLQERADEATTQKQSGEDNQDLAISFAGNGLSALRTSGSQARATCYCRTGRCATRESLSGVCEISGRLYRLCCR | – | bactericidal activity against Salmonella Typhimurium [4]: bactericidal
7 | alpha 1-antichymotrypsin: serpin, inhibitor of defensins (protein, UniProt P01011 24-423, looked up) Alpha-1-antichymotrypsin: HPNSPLDEENLTQENQDRGTHVDLGLASANVDFAFSLYKQLVLKAPDKNVIFSPLSISTALAFLSLGAHNTTLTEILKGLKFNLTETSEAEIHQSFQHLLRTLNQSSDELQLSMGNAMFVKEQLSLLDRFTEDAKRLYGSEAFATDFQDSAAAKKLINDYVKNGTRGKITDLIKDLDSQTMMVLVNYIFFKAKWEMPFDPQDTHQSRFYLSKKKWVMVPMMSLHHLTIPYFRDEELSCTVVELKYTGNASALFILPDQDKMEEVEAMLLPETLKRWRDSLEFREIGELYLPKFSISRDYNLNDILLQLGIEEAFTSKADLSGITGARNLAVSQVVHKAVLDVFEEGTEASAATAVKITLLSALVETRTIVRFNRPFLMIIVPTDTQNIFFMSKVTNPKQA | inhibit the bactericidal activity | –

Source: US20040265337A1, “Method of generating an immune response and compositions used for same” (priority 2002, published 2004)
